Results on 1 molecule are retold here after patent US20040166543A1 (Dana-Farber, published 2004).

The target of this test is T1, MUC1 (full-length wild-type DF3/MUC1 glycoprotein) (human, UniProt P15941 24-1255).
T1 construct: whole, on cells; One entry for endogenous and transfected wild-type MUC1; Co-immunoprecipitated from NP-40 lysates with mAb DF3; also called wild-type MUC1
Nature of the test: co-IP from ZR-75-1 lysate: anti-MUC1 IP, anti-PKCµ blot (FIG. 13B).

B1: PKCµ (protein kinase Cµ), endogenous in ZR-75-1 cells (enzyme, human, UniProt Q15139 1-912, looked up)
chain: MSAPPVLRPPSPLLPVAAAAAAAAAALVPGSGPGPAPFLAPVAAPVGGISFHLQIGLSREPVLLLQDSSGDYSLAHVREMACSIVDQKFPECGFYGMYDKILLFRHDPTSENILQLVKAASDIQEGDLIEVVLSASATFEDFQIRPHALFVHSYRAPAFCDHCGEMLWGLVRQGLKCEGCGLNYHKRCAFKIPNNCSGVRRRRLSNVSLTGVSTIRTSSAELSTSAPDEPLLQKSPSESFIGREKRSNSQSYIGRPIHLDKILMSKVKVPHTFVIHSYTRPTVCQYCKKLLKGLFRQGLQCKDCRFNCHKRCAPKVPNNCLGEVTINGDLLSPGAESDVVMEEGSDDNDSERNSGLMDDMEEAMVQDAEMAMAECQNDSGEMQDPDPDHEDANRTISPSTSNNIPLMRVVQSVKHTKRKSSTVMKEGWMVHYTSKDTLRKRHYWRLDSKCITLFQNDTGSRYYKEIPLSEILSLEPVKTSALIPNGANPHCFEITTANVVYYVGENVVNPSSPSPNNSVLTSGVGADVARMWEIAIQHALMPVIPKGSSVGTGTNLHRDISVSISVSNCQIQENVDISTVYQIFPDEVLGSGQFGIVYGGKHRKTGRDVAIKIIDKLRFPTKQESQLRNEVAILQNLHHPGVVNLECMFETPERVFVVMEKLHGDMLEMILSSEKGRLPEHITKFLITQILVALRHLHFKNIVHCDLKPENVLLASADPFPQVKLCDFGFARIIGEKSFRRSVVGTPAYLAPEVLRNKGYNRSLDMWSVGVIIYVSLSGTFPFNEDEDIHDQIQNAAFMYPPNPWKEISHEAIDLINNLLQVKMRKRYSVDKTLSHPWLQDYQTWLDLRELECKIGERYITHESDDLRWEKYAGEQGLQYPTHLINPSASHSDTPETEETEMKALGERVSIL
notes: whole, on cells
Turning to B1, the binding result is on record as “no binding”.
